In data set [1] the test system is O=C(O)[C@@H]1C[C@@H](O)CN1. Briefly: purified protein. Conditions: Tris 20 mM/EDTA 1 mM, pH 8-9 (optimum buffer), 37 C, 10-160 mM substrate.
For data set [2], the system named is O=C(O)[C@H]1C[C@@H](O)CN1. Briefly: purified protein. To be noted: Tris 20 mM/EDTA 1 mM, pH 8-9 (optimum buffer), 37 C, 10-160 mM substrate.

By Km is commonly meant the concentration of substrate that gives half-maximal velocity. PaHyPRE (Pseudomonas aeruginosa PAO1): the Km in data set [1] was determined as 15.9 mM; in data set [2], 18.5 mM.

These data come from PMC1964878.
